What was measured:
[1] = target: human platelet glycoprotein Ib alpha (GPIb alpha), on human platelets (human) (UniProt P07359); assay: cell-based or functional assay
[2] = target: murine platelet glycoprotein Ib alpha (GPIb alpha), on mouse platelets (mouse) (UniProt O35930); assay: cell-based or functional assay
[3] = target: human platelet glycoprotein Ib alpha (GPIb alpha), on human platelets (human) (UniProt P07359)
[4] = target: human platelet glycoprotein Ib alpha (GPIb alpha), on human platelets (human) (UniProt P07359); assay: human whole blood perfused over surface-bound protein, parallel-plate flow chamber, 1600 s^-1
[5] = target: human platelet integrin alphaIIb beta3, on human platelets (human) (UniProt P08514); assay: cell-based or functional assay
human platelet integrin alphaIIb beta3, on human platelets (human), sequence (P08514 32-1039, chain 1 of 2): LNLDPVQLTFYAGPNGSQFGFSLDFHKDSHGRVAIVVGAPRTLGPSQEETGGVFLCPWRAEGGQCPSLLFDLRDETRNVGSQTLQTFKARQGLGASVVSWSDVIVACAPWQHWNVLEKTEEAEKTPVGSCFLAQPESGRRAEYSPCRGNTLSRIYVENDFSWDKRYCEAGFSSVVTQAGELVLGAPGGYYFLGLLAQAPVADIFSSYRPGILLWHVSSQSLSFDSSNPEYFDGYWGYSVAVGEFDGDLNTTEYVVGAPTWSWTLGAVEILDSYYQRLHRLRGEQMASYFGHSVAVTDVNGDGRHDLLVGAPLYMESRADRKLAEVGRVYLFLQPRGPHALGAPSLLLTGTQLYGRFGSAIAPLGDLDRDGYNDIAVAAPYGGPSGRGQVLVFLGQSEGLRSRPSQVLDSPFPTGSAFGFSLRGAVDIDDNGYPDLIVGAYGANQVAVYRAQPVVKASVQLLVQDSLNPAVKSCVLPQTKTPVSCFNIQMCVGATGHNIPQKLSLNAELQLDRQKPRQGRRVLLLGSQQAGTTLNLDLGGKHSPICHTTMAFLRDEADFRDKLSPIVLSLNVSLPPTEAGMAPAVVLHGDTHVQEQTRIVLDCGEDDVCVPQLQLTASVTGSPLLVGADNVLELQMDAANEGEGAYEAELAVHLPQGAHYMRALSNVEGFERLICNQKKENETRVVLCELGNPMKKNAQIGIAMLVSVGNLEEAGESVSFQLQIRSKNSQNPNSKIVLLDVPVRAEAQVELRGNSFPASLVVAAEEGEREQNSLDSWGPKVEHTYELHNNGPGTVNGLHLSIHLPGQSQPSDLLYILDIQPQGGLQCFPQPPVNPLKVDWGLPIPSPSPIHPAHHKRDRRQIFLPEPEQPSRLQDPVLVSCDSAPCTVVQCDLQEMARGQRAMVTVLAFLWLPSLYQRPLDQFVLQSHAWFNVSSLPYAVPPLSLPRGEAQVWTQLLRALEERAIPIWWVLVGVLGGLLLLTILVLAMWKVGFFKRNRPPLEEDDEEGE
human platelet integrin alphaIIb beta3, on human platelets (human), sequence (P05106 27-788, chain 2 of 2, further chain): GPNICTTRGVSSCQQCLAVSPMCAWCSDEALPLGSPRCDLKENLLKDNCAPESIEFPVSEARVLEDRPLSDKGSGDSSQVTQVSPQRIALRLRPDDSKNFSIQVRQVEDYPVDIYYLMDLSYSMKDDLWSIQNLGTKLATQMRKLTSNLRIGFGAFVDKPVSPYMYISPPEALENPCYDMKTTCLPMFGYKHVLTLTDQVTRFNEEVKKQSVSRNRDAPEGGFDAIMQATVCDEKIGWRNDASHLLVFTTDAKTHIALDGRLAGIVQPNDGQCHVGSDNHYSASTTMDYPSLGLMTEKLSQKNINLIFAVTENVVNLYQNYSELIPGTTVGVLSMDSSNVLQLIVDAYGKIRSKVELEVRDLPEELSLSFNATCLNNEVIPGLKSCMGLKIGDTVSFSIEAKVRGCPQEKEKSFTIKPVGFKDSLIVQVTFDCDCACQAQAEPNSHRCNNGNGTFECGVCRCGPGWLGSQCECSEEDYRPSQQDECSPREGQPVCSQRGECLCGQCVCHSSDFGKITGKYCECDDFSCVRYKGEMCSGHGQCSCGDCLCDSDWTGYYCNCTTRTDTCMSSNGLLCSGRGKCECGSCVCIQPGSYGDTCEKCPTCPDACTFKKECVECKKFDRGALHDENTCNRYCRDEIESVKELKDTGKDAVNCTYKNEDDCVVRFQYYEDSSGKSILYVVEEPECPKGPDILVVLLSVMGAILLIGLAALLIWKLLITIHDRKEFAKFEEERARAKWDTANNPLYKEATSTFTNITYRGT

human platelet glycoprotein Ib alpha (GPIb alpha), on human platelets (human), sequence (P07359 17-652): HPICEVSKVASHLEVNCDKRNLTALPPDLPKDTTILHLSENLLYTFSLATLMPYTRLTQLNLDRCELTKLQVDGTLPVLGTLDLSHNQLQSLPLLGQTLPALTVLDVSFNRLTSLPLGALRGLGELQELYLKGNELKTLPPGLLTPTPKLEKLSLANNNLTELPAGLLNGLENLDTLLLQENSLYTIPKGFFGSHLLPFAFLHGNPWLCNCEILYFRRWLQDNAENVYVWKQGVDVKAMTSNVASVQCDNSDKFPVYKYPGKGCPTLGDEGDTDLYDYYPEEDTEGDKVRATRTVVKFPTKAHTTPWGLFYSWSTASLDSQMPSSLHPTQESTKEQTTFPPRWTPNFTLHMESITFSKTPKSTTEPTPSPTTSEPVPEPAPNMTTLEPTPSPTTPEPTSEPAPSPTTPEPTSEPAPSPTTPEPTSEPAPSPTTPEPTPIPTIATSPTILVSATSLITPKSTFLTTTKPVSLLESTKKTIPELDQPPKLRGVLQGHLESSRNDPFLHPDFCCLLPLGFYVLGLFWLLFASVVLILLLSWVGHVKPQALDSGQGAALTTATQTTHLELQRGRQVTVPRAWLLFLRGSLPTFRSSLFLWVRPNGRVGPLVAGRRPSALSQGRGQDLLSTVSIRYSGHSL
murine platelet glycoprotein Ib alpha (GPIb alpha), on mouse platelets (mouse), sequence (O35930 17-734): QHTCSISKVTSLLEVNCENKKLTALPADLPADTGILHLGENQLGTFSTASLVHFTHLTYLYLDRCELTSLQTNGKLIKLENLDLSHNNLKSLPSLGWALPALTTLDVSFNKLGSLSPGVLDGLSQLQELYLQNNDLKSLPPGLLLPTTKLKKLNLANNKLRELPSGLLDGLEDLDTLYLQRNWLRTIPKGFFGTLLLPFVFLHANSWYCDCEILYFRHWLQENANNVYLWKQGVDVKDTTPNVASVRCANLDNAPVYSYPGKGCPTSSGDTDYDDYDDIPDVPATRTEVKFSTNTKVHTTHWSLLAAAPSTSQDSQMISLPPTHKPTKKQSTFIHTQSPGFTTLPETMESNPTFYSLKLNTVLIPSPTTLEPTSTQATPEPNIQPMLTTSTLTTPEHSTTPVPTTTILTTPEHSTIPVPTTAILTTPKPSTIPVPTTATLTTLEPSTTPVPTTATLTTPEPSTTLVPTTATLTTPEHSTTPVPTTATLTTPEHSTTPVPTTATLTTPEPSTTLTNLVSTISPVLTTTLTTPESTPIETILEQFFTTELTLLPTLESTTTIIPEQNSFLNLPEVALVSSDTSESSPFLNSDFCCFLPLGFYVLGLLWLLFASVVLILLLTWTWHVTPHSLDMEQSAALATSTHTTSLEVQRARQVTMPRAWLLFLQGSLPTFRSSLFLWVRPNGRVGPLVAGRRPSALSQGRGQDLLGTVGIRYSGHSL

**Q.** For “murine plasma VWF with the 1326R>H mutation (from homozygous VWF 1326R>H knock-in mice), Q8CIZ8 764-2813”, which average thrombus size at laser-injured arterioles of homozygous VWF 1326R>H mice infused with human platelets [1] is on record?
**A.** Its average thrombus size at laser-injured arterioles of homozygous VWF 1326R>H mice infused with human platelets is 8950 µm^2.

**Q.** What about the share of human cells in thrombi at laser-injured arterioles of homozygous VWF 1326R>H mice [1] of the same substance?
**A.** The share of human cells in thrombi at laser-injured arterioles of homozygous VWF 1326R>H mice was 91.7%.

**Q.** What about the translocation velocity of human platelets on immobilized plasma VWF [1] of the same substance?
**A.** Its translocation velocity of human platelets on immobilized plasma VWF is 3.5 µm/sec.

**Q.** And the thrombi formed on collagen-coated cover slips by whole blood of knock-in animals, 1600 s^-1, reduction against WT [2]?
**A.** Its thrombi formed on collagen-coated cover slips by whole blood of knock-in animals, 1600 s^-1, reduction against WT is 70%.

**Q.** And the thrombus formation by whole blood of mutant mice over surface-immobilized collagen in vitro, reduction against WT [2]?
**A.** Its thrombus formation by whole blood of mutant mice over surface-immobilized collagen in vitro, reduction against WT is 80%.

**Q.** How did the human platelet accumulation / mm2 on surface-immobilized murine plasma VWF 1326R>H at 1600 s^-1, human blood treated with mAb 6D1 [3] turn out when “function-blocking monoclonal antibody 6D1 (anti-human GPIb alpha)” was run?
**A.** Its human platelet accumulation / mm2 on surface-immobilized murine plasma VWF 1326R>H at 1600 s^-1, human blood treated with mAb 6D1 is 0 / mm2.

**Q.** And the thrombus size in VWF 1326R>H mice after pre-treatment of human platelets with mAb 6D1 [1]?
**A.** Its thrombus size in VWF 1326R>H mice after pre-treatment of human platelets with mAb 6D1 is 265 µm^2.

**Q.** What does the source list for “murine plasma VWF, wild type, Q8CIZ8 764-2813”?
**A.** share of human platelets in total thrombus area in WT mice [1]: 5.7%; ristocetin-induced platelet aggregation (RIPA), murine PRP, ristocetin ≧2.5 mg/ml [2]: 30%; platelet deposition, % of same-species control [4]: 10%

**Q.** With “function-blocking monoclonal antibody 7E3 (anti-human alphaIIb beta3)” as the substance, how does the thrombus size in VWF 1326R>H mice after treatment of human platelets with mAb 7E3 [5] read?
**A.** Its thrombus size in VWF 1326R>H mice after treatment of human platelets with mAb 7E3 is 529 µm^2.
